Values quoted from earlier work as cited in article PMC2935699.

Columns and labels:
Galanin receptor 3 = Galanin receptor 3 (UniProt O60755)
Galanin receptor 2 = Galanin receptor 2 (UniProt O43603)
Galanin receptor 1 = Galanin receptor 1 (UniProt P47211)
Sequence of UniProt P47211 (P47211 whole entry): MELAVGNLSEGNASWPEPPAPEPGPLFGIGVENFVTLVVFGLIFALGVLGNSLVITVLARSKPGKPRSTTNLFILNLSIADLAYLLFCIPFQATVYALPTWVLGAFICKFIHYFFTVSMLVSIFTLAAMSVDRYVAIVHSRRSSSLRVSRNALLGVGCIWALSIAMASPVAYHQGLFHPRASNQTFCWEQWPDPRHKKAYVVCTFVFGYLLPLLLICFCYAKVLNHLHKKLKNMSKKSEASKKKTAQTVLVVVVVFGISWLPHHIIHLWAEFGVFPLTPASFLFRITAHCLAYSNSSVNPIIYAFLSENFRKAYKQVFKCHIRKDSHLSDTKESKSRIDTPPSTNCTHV

Sequence of UniProt O43603 (O43603 whole entry): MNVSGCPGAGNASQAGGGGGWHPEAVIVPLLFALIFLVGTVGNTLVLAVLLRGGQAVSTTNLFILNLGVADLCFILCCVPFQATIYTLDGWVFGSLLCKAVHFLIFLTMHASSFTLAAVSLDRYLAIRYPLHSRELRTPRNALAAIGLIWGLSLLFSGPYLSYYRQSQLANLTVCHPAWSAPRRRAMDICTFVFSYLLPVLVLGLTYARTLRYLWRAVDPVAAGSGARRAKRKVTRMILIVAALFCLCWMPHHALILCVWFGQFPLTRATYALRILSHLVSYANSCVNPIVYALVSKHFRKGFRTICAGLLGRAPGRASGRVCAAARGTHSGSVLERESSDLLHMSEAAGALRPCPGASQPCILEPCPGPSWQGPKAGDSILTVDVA
Sequence of UniProt O60755 (O60755 whole entry): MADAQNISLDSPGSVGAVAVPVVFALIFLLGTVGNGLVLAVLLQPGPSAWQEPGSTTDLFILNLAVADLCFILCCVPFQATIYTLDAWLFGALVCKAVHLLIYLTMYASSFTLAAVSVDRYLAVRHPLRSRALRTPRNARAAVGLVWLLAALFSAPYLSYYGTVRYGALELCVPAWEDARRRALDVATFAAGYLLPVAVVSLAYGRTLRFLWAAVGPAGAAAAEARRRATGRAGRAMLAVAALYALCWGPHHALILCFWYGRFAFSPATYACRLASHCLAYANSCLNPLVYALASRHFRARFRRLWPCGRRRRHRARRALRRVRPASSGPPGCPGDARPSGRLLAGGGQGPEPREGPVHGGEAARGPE

Ki (Galanin receptor 3): 49.6 nM
Ki (Galanin receptor 2): 5.66 nM
Ki (Galanin receptor 1): 4.8 nM
Substance: Galanin 1-16 1-16 (from UniProt P22466)
